In the supplement of paper PMC9732359:
± gives the uncertainty stated by the source.

Test: protein stability index of a GFP-peptide fusion (yeast GPS) (PSI 1-4); higher = more stable; sorted into four equal gates, so the index is relative within each strain
Details: doa10∆
In short: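 Tiled 17-residue yeast protein peptides were fused downstream of GFP in a plasmid that also expresses Cherry, and the pooled library was carried in yeast. Mid-log cultures in leucine-free medium were sorted into four equal gates by GFP/Cherry fluorescence ratio, and plasmids from each gate were PCR-amplified and Illumina-sequenced, with reads assigned to strains by barcodes. The protein stability index for each peptide was each gate's read frequency times its gate number, summed.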

| Sequence | protein stability index |
| --- | --- |
| VKFLVYQGVYSMGSILL [YML031W/NDC1] | 1.65 ± 0.091 |
| VKIHSQESLLSRTFDKY [SRP72] | 2.92 ± 0.053 |
| VKIIRKSETSGRYASYR [RPB5] | 3.09 ± 0.076 |
| VKKASGEIVSINQINEA [RPL20A] | 2.89 ± 0.1 |
| VKKAVTVHSKSRTRAHA [RPL19A] | 3.2 ± 0.1 |
| VKNTNANPVVATDPVAA [SWP82] | 2 ± 0.1 |
| VKRYRLAPTQLSAEYLV [SIN4] | 2.44 ± 0.062 |
| VKSVNDPSQNRLTGSLL [RPC37] | 3.16 ± 0.089 |
| VKWVHMIIDEGHRMKNA [SNF2] | 1.81 ± 0.12 |
| VLADALNAINNAEKTGK [RPS22A] | 2.92 ± 0.056 |
| VLEDCRHLPMYTEFIDS [ITC1] | 2.34 ± 0.1 |
| VLGTPDQKIWPYLEKYP [SSN3] | 2.42 ± 0.077 |
| VLIKKGQSAGKLAAIVE [RPL14A] | 2.99 ± 0.2 |
| VLKTLEYKLATYGVPGS [NUT1] | 2.75 ± 0.068 |
| VLLVEKYGAEYDLVDNK [NAS6] | 1.9 ± 0.22 |
| VLNEDDLAFGGEANKHH [RPN5] | 3.25 ± 0.09 |
| VLSINPDMYERKVENIR [MED7] | 2.81 ± 0.08 |
| VLSQFERSYPSEFANQN [ROX3] | 2.26 ± 0.098 |
| VLSSVREPDFWVIRKQR [MED6] | 3.52 ± 0.12 |
| VLTGGYLDQHKRTRLES [SMC3] | 2.26 ± 0.17 |
| VLTNIEVYRTSLNTKKN [SMC3] | 2.61 ± 0.17 |
| VLTRMDEDRSKKEEELG [SNF2] | 3.51 ± 0.11 |
| VLVLHGDKDTRADIVRN [ISW2] | 3.02 ± 0.063 |
| VLVVRGSKKGQEGKISS [RPL26A] | 3.54 ± 0.085 |
| VLYYRDARSSRNFSLAI [PRE4] | 2.85 ± 0.14 |
| VNASVDVDQHGNDNNSD [SWI3] | 3.13 ± 0.085 |

| Sequence | protein stability index |
| --- | --- |
| VNKVPQNVAGDKTAVKL [SWP82] | 2.71 ± 0.16 |
| VNLEDNTQDLLLLLSLF [YML103C/NUP188] | 1.68 ± 0.13 |
| VNLSEVMTVPGIDPTRI [RPO21] | 2.92 ± 0.083 |
| VNRQSPLFFVDLKLLFN [RGR1] | 1.53 ± 0.065 |
| VNTMGTGGQTIDNGTGR [MED6] | 3.27 ± 0.14 |
| VPFESLQGVTYPVLRKL [YIL149C/MLP2] | 2.82 ± 0.11 |
| VPFIIAAMVIMHLMALH [COB] | 2.08 ± 0.055 |
| VPIERVAQLKPFFKYID [RPC37] | 2.54 ± 0.062 |
| VPLSDNAIIEANLGKYG [RPL7A] | 2.29 ± 0.073 |
| VPLTKRYQHLEKITQIS [PCI8] | 2.39 ± 0.28 |
| VPNYEVSEKAFLLTQSK [RPN7] | 3.17 ± 0.18 |
| VPPINCIFNFLQQQTPV [SME1] | 1.34 ± 0.042 |
| VPSAKPLILTPPQLANQ [SNF11] | 2.63 ± 0.049 |
| VPSPTGEYVKEPEWVLE [RPO21] | 3 ± 0.11 |
| VPTIGVVNSNFAKEHNA [YJR042W/NUP85] | 2.51 ± 0.072 |
| VPTKIARGTIEIVSDVK [RPP0] | 2.26 ± 0.25 |
| VPVIESAGFETDLRLST [SNU114] | 3.14 ± 0.21 |
| VQEMALGGPITKESQPT [FAS2] | 2.78 ± 0.099 |
| VQGAAPWDTSLEVGRRF [MCD1] | 3.48 ± 0.13 |
| VQGMNDDIFIRYLTLLS [ECM29] | 1.37 ± 0.053 |
| VQKILPLSNEVFEISEN [SWI1] | 2.13 ± 0.043 |
| VQNLRSWETKLKQNILE [CSN9] | 1.83 ± 0.077 |
| VQVSKAGGLPMDALTLM [RRP45] | 1.28 ± 0.12 |
| VRAEELNISGEFFRNKL [RPL16A] | 3.67 ± 0.21 |
| VREFLEKNYDRKEPPAT [PRE6] | 3.29 ± 0.13 |
| VREYEQPDANKKKRSRT [ISW2] | 3.13 ± 0.14 |

| Sequence | protein stability index |
| --- | --- |
| VRIDLGTIDKLQLELTI [RPO31] | 1.99 ± 0.049 |
| VRLQRQKKILSIRLKVP [RPL8B] | 1.5 ± 0.032 |
| VRPSISFNESQRGEDDL [RPO21] | 2.49 ± 0.078 |
| VRSFSKALDELKPEIEK [LRP1] | 3.39 ± 0.088 |
| VSCYRPRRDGERKRKSV [RPS6A] | 1.79 ± 0.22 |
| VSDSNDDVRRAAVIALG [RPN2] | 3.26 ± 0.1 |
| VSECIILGQTMSIGTGS [RPO31] | 2.06 ± 0.078 |
| VSETPKRIKGLEFSALS [RPO31] | 3.01 ± 0.12 |
| VSFNDSQSMVTNKENNI [YIL149C/MLP2] | 2.96 ± 0.057 |
| VSFNSKQNEQLHVEQLS [SMC3] | 2.27 ± 0.071 |
| VSKEQFLKDADVECIKA [YJL039C/NUP192] | 1.45 ± 0.043 |
| VSKQLGNGLVDENKVEA [YAR002W/NUP60] | 3.17 ± 0.082 |
| VSKVQKRKVLELKKKRK [SRP72] | 2.78 ± 0.1 |
| VSLCAKNMGLVPMKEEN [SSN2] | 1.89 ± 0.086 |
| VSLQNFSSSVSLSYMAF [RRP40] | 2.22 ± 0.047 |
| VSLTQLRCVKYLQETAI [RPC82] | 1.82 ± 0.14 |
| VSNKFEKIFHYGHVFLG [PUP3] | 2.94 ± 0.28 |
| VSRGQSAVLLETTLGEM [PRP8] | 2.13 ± 0.12 |
| VSSRVRGYTCQFVDMVL [FAS1] | 1.76 ± 0.09 |
| VSSSKNKKSEENEMIKP [SWP82] | 2.72 ± 0.25 |
| VSTETFEQPSQREEAKK [RPL27A] | 2.9 ± 0.061 |
| VSVLLISKDCSAFACKT [BRR2] | 1.96 ± 0.052 |
| VTEANIIKLVEGLANDP [RPS12] | 2.51 ± 0.12 |
| VTEETTKQIQSVRIDGR [SIR4] | 2.31 ± 0.086 |
| VTHMDQIFVRGSQIKFI [SMD3] | 2.55 ± 0.13 |
| VTLDITTLTIMRILPRE [RPT4] | 2.53 ± 0.057 |

| Sequence | protein stability index |
| --- | --- |
| VTLSQLVSVTSTLQHFQ [MED8] | 1.9 ± 0.029 |
| VTNALDNIDEKVVKAIR [NUT1] | 3.04 ± 0.16 |
| VTNFNSTNEDQNNSKHT [SRB5] | 3.18 ± 0.16 |
| VTNSPLFQTIEKLINNS [ECM29] | 2.73 ± 0.054 |
| VTQSNILSQQFDKIIKI [SRB8] | 2.72 ± 0.07 |
| VTRTHGNSGVVRATFRN [RPL33A] | 2.6 ± 0.075 |
| VTSADSNLKISLVKYPE [SWI1] | 2.61 ± 0.067 |
| VTTCVYLACKVEECPQY [SSN8] | 1.93 ± 0.059 |
| VTVHSLTGEATANALPL [RPL4A] | 2.75 ± 0.069 |
| VVAKLEDKRKVRSAEYY [RPL16B] | 3.49 ± 0.1 |
| VVDFLKRNGSTLEQKVN [FAS1] | 2.83 ± 0.057 |
| VVEEFTPVVLATPIPEE [RPS5] | 2.69 ± 0.13 |
| VVGQNQLIDQFEWDISN [SNF5] | 2.52 ± 0.093 |
| VVIEKRRKKILNEIELD [GRR1] | 2.03 ± 0.14 |
| VVILARAKALGIKVTNP [RPL32] | 3.16 ± 0.14 |
| VVLVSGEGERFTVDKKI [SKP1] | 3.53 ± 0.11 |
| VVNDLVGEKLVVVVLEE [SIR3] | 3.42 ± 0.076 |
| VVPDLGHLNGHTPTIAS [SSN2] | 2.15 ± 0.045 |
| VVRNMLALTTLSEPLIK [YCG1] | 1.87 ± 0.07 |
| VVSAVGEARNDIENKEE [YAR002W/NUP60] | 2.92 ± 0.056 |
| VVSLKEGMFANANRVFR [SMC2] | 2.84 ± 0.071 |
| VVVVGTVTDDARIFEFP [RPL18A] | 2.75 ± 0.14 |
| VVWYQRLTMGNVFTPEI [RRI2] | 2.03 ± 0.074 |
